Molecular target: human IL-21 receptor (IL-21R) on cells (human, UniProt Q9HBE5 20-538; P31785 23-369)
Assay: cell-based or functional assay

Chain of human IL-21 receptor (IL-21R) on cells (Q9HBE5 20-538, chain 1 of 2): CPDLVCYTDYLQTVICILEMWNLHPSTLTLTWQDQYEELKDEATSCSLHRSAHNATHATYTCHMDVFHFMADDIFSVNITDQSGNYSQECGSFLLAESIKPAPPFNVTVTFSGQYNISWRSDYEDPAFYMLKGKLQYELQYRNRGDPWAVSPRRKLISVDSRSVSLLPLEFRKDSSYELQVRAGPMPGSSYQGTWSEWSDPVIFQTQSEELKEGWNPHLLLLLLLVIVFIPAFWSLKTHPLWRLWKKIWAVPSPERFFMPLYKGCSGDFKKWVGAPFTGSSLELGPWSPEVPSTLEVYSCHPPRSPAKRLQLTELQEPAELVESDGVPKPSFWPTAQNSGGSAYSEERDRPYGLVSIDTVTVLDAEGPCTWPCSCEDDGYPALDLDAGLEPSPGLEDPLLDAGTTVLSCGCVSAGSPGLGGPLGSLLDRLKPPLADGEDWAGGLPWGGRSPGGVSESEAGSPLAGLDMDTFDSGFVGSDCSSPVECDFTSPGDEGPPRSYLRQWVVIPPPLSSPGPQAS
Chain of human IL-21 receptor (IL-21R) on cells (P31785 23-369, chain 2 of 2): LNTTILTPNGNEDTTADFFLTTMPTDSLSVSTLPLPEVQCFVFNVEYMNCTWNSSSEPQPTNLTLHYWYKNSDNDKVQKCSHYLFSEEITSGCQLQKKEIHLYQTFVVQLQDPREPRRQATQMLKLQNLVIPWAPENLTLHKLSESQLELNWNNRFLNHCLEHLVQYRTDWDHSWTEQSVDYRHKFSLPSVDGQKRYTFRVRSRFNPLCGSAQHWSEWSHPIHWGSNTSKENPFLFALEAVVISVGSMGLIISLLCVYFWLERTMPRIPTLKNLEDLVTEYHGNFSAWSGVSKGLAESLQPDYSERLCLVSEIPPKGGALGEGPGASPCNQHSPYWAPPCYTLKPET

| EC50B, pSTAT3+ Jurkat PD-1 cells, PD-1 blocked [nM] | EC50NB, pSTAT3+ Jurkat PD-1 cells [pM] | Binder |
| --- | --- | --- |
| 1.06 | 16 | EJD551 (bispecific antibody, human IgG1, kappa, lambda, L234A L235A) heavy 1: EVQLLESGGGLVQPGGSLRLSCAASGFTFSINAMTWVRQAPGKGLEWVSTISGSGFSTYYADSLKGRFTISRDNSKNTLYLQMNSLRAEDTAVYYCAKEVYGDYWGQGTLVTVSSASTKGPSVFPLAPSSKSTSGGTAALGCLVKDYFPEPVTVSWNSGALTSGVHTFPAVLQSSGLYSLSSVVTVPSSSLGTQTYICNVNHKPSNTKVDKRVEPKSCDKTHTCPPCPAPEAAGGPSVFLFPPKPKDTLMISRTPEVTCVVVDVSHEDPEVKFNWYVDGVEVHNAKTKPREEQYNSTYRVVSVLTVLHQDWLNGKEYKCKVSNKALAAPIEKTISKAKGQPREPQVCTLPPSREEMTKNQVSLSCAVKGFYPSDIAVEWESNGQPENNYKTTPPVLDSDGSFFLVSKLTVDKSRWQQGNVFSCSVMHEALHNHYTQKSLSLSPGK light: not shown heavy 2: QVQLQESGPGLVKPSETLSLTCTVSGGSISSDYWGWIRQPPGKGLEWIGYISYRGSTNYNPSLKSRVTISVDTSRNQFSLKLSSVTAADTAVYYCARSAGVTDFDWWGQGTLVTVSSASTKGPSVFPLAPSSKSTSGGTAALGCLVKDYFPEPVTVSWNSGALTSGVHTFPAVLQSSGLYSLSSVVTVPSSSLGTQTYICNVNHKPSNTKVDKRVEPKSCDKTHTCPPCPAPEAAGGPSVFLFPPKPKDTLMISRTPEVTCVVVDVSHEDPEVKFNWYVDGVEVHNAKTKPREEQYNSTYRVVSVLTVLHQDWLNGKEYKCKVSNKALAAPIEKTISKAKGQPREPQVYTLPPCREEMTKNQVSLWCLVKGFYPSDIAVEWESNGQPENNYKTTPPVLDSDGSFFLYSKLTVDKSRWQQGNVFSCSVMHEALHNHYTQKSLSLSPGK not shown |
| 0.312 | 15 | BBU753 (bispecific antibody, human IgG1, kappa, lambda, L234A L235A) heavy 1: EVQLLESGGGLVQPGGSLRLSCAASGFTFSINAMTWVRQAPGKGLEWVSTISGSGFSTYYADSLKGRFTISRDNSKNTLYLQMNSLRAEDTAVYYCAKEVYGDYWGQGTLVTVSSASTKGPSVFPLAPSSKSTSGGTAALGCLVKDYFPEPVTVSWNSGALTSGVHTFPAVLQSSGLYSLSSVVTVPSSSLGTQTYICNVNHKPSNTKVDKRVEPKSCDKTHTCPPCPAPEAAGGPSVFLFPPKPKDTLMISRTPEVTCVVVDVSHEDPEVKFNWYVDGVEVHNAKTKPREEQYNSTYRVVSVLTVLHQDWLNGKEYKCKVSNKALAAPIEKTISKAKGQPREPQVCTLPPSREEMTKNQVSLSCAVKGFYPSDIAVEWESNGQPENNYKTTPPVLDSDGSFFLVSKLTVDKSRWQQGNVFSCSVMHEALHNHYTQKSLSLSPGK light 1: not shown heavy 2: QVQLQESGPGLVKPSETLSLTCTVSGGSISSDFWGWIRQPPGKGLEWIGYISSRGSTNYNPSLKRRVTISVDTSRNQFSLKLSSVTAADTAVYYCARSAGVADFDFWGQGTLVTVSSASTKGPSVFPLAPSSKSTSGGTAALGCLVKDYFPEPVTVSWNSGALTSGVHTFPAVLQSSGLYSLSSVVTVPSSSLGTQTYICNVNHKPSNTKVDKRVEPKSCDKTHTCPPCPAPEAAGGPSVFLFPPKPKDTLMISRTPEVTCVVVDVSHEDPEVKFNWYVDGVEVHNAKTKPREEQYNSTYRVVSVLTVLHQDWLNGKEYKCKVSNKALAAPIEKTISKAKGQPREPQVYTLPPCREEMTKNQVSLWCLVKGFYPSDIAVEWESNGQPENNYKTTPPVLDSDGSFFLYSKLTVDKSRWQQGNVFSCSVMHEALHNHYTQKSLSLSPGK light 2: not shown |

Continued, binder first:

| Binder | EC50B, pSTAT3+ Jurkat PD-1 cells, PD-1 blocked [nM] | EC50NB, pSTAT3+ Jurkat PD-1 cells [pM] |
| --- | --- | --- |
| GSV075 (bispecific antibody, human IgG1, kappa, lambda, L234A L235A) heavy 1: EVQLLESGGGLVQPGGSLRLSCAASGFTFSINAMTWVRQAPGKGLEWVSTISGSGFSTYYADSLKGRFTISRDNSKNTLYLQMNSLRAEDTAVYYCAKEVYGDYWGQGTLVTVSSASTKGPSVFPLAPSSKSTSGGTAALGCLVKDYFPEPVTVSWNSGALTSGVHTFPAVLQSSGLYSLSSVVTVPSSSLGTQTYICNVNHKPSNTKVDKRVEPKSCDKTHTCPPCPAPEAAGGPSVFLFPPKPKDTLMISRTPEVTCVVVDVSHEDPEVKFNWYVDGVEVHNAKTKPREEQYNSTYRVVSVLTVLHQDWLNGKEYKCKVSNKALAAPIEKTISKAKGQPREPQVCTLPPSREEMTKNQVSLSCAVKGFYPSDIAVEWESNGQPENNYKTTPPVLDSDGSFFLVSKLTVDKSRWQQGNVFSCSVMHEALHNHYTQKSLSLSPGK light 1: not shown heavy 2: QVQLQESGPGLVKPSETLSLTCTVSGGSISSDYWGWIRQPPGKGLEWIGYISYRGSTNYNPSLKSRVTISVDTSRNQFSLKLSSVTAADTAVYYCARSAGVTDFDWWGQGTLVTVSSASTKGPSVFPLAPSSKSTSGGTAALGCLVKDYFPEPVTVSWNSGALTSGVHTFPAVLQSSGLYSLSSVVTVPSSSLGTQTYICNVNHKPSNTKVDKRVEPKSCDKTHTCPPCPAPEAAGGPSVFLFPPKPKDTLMISRTPEVTCVVVDVSHEDPEVKFNWYVDGVEVHNAKTKPREEQYNSTYRVVSVLTVLHQDWLNGKEYKCKVSNKALAAPIEKTISKAKGQPREPQVYTLPPCREEMTKNQVSLWCLVKGFYPSDIAVEWESNGQPENNYKTTPPVLDSDGSFFLYSKLTVDKSRWQQGNVFSCSVMHEALHNHYTQKSLSLSPGK light 2: not shown | 0.627 | 23 |
| ECW089 (bispecific antibody, human IgG1, kappa, lambda, L234A L235A) heavy 1: EVQLLESGGGLVQPGGSLRLSCAASGFTFSINAMTWVRQAPGKGLEWVSTISGSGFSTYYADSLKGRFTISRDNSKNTLYLQMNSLRAEDTAVYYCAKEVYGDYWGQGTLVTVSSASTKGPSVFPLAPSSKSTSGGTAALGCLVKDYFPEPVTVSWNSGALTSGVHTFPAVLQSSGLYSLSSVVTVPSSSLGTQTYICNVNHKPSNTKVDKRVEPKSCDKTHTCPPCPAPEAAGGPSVFLFPPKPKDTLMISRTPEVTCVVVDVSHEDPEVKFNWYVDGVEVHNAKTKPREEQYNSTYRVVSVLTVLHQDWLNGKEYKCKVSNKALAAPIEKTISKAKGQPREPQVCTLPPSREEMTKNQVSLSCAVKGFYPSDIAVEWESNGQPENNYKTTPPVLDSDGSFFLVSKLTVDKSRWQQGNVFSCSVMHEALHNHYTQKSLSLSPGK light 1: not shown heavy 2: QVQLQESGPGLVKPSETLSLTCTVSGGSISSDYWGWIRQPPGKGLEWIGYISYRGSTNYNPSLKSRVTISVDTSRNQFSLKLSSVTAADTAVYYCARSAGVTDFDAWGQGTLVTVSSASTKGPSVFPLAPSSKSTSGGTAALGCLVKDYFPEPVTVSWNSGALTSGVHTFPAVLQSSGLYSLSSVVTVPSSSLGTQTYICNVNHKPSNTKVDKRVEPKSCDKTHTCPPCPAPEAAGGPSVFLFPPKPKDTLMISRTPEVTCVVVDVSHEDPEVKFNWYVDGVEVHNAKTKPREEQYNSTYRVVSVLTVLHQDWLNGKEYKCKVSNKALAAPIEKTISKAKGQPREPQVYTLPPCREEMTKNQVSLWCLVKGFYPSDIAVEWESNGQPENNYKTTPPVLDSDGSFFLYSKLTVDKSRWQQGNVFSCSVMHEALHNHYTQKSLSLSPGK light 2: not shown | 0.13 | 96.3 |
| GMH764 (bispecific antibody, human IgG1, kappa, lambda, L234A L235A) heavy 1: EVQLLESGGGLVQPGGSLRLSCAASGFTFSINAMTWVRQAPGKGLEWVSTISGSGFSTYYADSLKGRFTISRDNSKNTLYLQMNSLRAEDTAVYYCAKEVYGDYWGQGTLVTVSSASTKGPSVFPLAPSSKSTSGGTAALGCLVKDYFPEPVTVSWNSGALTSGVHTFPAVLQSSGLYSLSSVVTVPSSSLGTQTYICNVNHKPSNTKVDKRVEPKSCDKTHTCPPCPAPEAAGGPSVFLFPPKPKDTLMISRTPEVTCVVVDVSHEDPEVKFNWYVDGVEVHNAKTKPREEQYNSTYRVVSVLTVLHQDWLNGKEYKCKVSNKALAAPIEKTISKAKGQPREPQVCTLPPSREEMTKNQVSLSCAVKGFYPSDIAVEWESNGQPENNYKTTPPVLDSDGSFFLVSKLTVDKSRWQQGNVFSCSVMHEALHNHYTQKSLSLSPGK light 1: not shown heavy 2: QVQLQESGPGLVKPSETLSLTCTVSGGSISSDYWGWIRQPPGKGLEWIGYISYRGSTNYNPSLKSRVTISVDTSRNQFSLKLSSVTAADTAVYYCARSAGVTDFDWWGQGTLVTVSSASTKGPSVFPLAPSSKSTSGGTAALGCLVKDYFPEPVTVSWNSGALTSGVHTFPAVLQSSGLYSLSSVVTVPSSSLGTQTYICNVNHKPSNTKVDKRVEPKSCDKTHTCPPCPAPEAAGGPSVFLFPPKPKDTLMISRTPEVTCVVVDVSHEDPEVKFNWYVDGVEVHNAKTKPREEQYNSTYRVVSVLTVLHQDWLNGKEYKCKVSNKALAAPIEKTISKAKGQPREPQVYTLPPCREEMTKNQVSLWCLVKGFYPSDIAVEWESNGQPENNYKTTPPVLDSDGSFFLYSKLTVDKSRWQQGNVFSCSVMHEALHNHYTQKSLSLSPGK light 2: not shown | 0.872 | 13 |
| ETR048 (bispecific antibody, human IgG1, kappa, lambda, L234A L235A) heavy 1: EVQLLESGGGLVQPGGSLRLSCAASGFTFSINAMTWVRQAPGKGLEWVSTISGSGFSTYYADSLKGRFTISRDNSKNTLYLQMNSLRAEDTAVYYCAKEVYGDYWGQGTLVTVSSASTKGPSVFPLAPSSKSTSGGTAALGCLVKDYFPEPVTVSWNSGALTSGVHTFPAVLQSSGLYSLSSVVTVPSSSLGTQTYICNVNHKPSNTKVDKRVEPKSCDKTHTCPPCPAPEAAGGPSVFLFPPKPKDTLMISRTPEVTCVVVDVSHEDPEVKFNWYVDGVEVHNAKTKPREEQYNSTYRVVSVLTVLHQDWLNGKEYKCKVSNKALAAPIEKTISKAKGQPREPQVCTLPPSREEMTKNQVSLSCAVKGFYPSDIAVEWESNGQPENNYKTTPPVLDSDGSFFLVSKLTVDKSRWQQGNVFSCSVMHEALHNHYTQKSLSLSPGK light 1: not shown heavy 2: QVQLQESGPGLVKPSETLSLTCTVSGGSISSDYWGWIRQPPGKGLEWIGYISYRGSTNYNPSLKSRVTISVDTSRNQFSLKLSSVTAADTAVYYCARSAGVTDFDWWGQGTLVTVSSASTKGPSVFPLAPSSKSTSGGTAALGCLVKDYFPEPVTVSWNSGALTSGVHTFPAVLQSSGLYSLSSVVTVPSSSLGTQTYICNVNHKPSNTKVDKRVEPKSCDKTHTCPPCPAPEAAGGPSVFLFPPKPKDTLMISRTPEVTCVVVDVSHEDPEVKFNWYVDGVEVHNAKTKPREEQYNSTYRVVSVLTVLHQDWLNGKEYKCKVSNKALAAPIEKTISKAKGQPREPQVYTLPPCREEMTKNQVSLWCLVKGFYPSDIAVEWESNGQPENNYKTTPPVLDSDGSFFLYSKLTVDKSRWQQGNVFSCSVMHEALHNHYTQKSLSLSPGK light 2: not shown | 0.751 | 12 |

From patent publication EP4671273A1 (Anaveon AG, dated 2025)
